The text below walks through data of publication PMC5694952 (The EMBO Journal, 2016).

The labels stand for the following.
T1: chloroplast ribosomal protein bL20c (spinach (Spinacia oleracea) (endogenous …, UniProt P28803 1-128))
T1 sequence (looked up): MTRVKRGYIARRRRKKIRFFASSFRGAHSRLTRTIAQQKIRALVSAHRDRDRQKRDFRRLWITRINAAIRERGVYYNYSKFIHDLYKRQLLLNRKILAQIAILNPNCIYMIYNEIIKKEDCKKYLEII

T2: chloroplast ribosomal protein bS1c (spinach (Spinacia oleracea) (endogenous …, UniProt P29344 42-411))
T2 sequence (looked up): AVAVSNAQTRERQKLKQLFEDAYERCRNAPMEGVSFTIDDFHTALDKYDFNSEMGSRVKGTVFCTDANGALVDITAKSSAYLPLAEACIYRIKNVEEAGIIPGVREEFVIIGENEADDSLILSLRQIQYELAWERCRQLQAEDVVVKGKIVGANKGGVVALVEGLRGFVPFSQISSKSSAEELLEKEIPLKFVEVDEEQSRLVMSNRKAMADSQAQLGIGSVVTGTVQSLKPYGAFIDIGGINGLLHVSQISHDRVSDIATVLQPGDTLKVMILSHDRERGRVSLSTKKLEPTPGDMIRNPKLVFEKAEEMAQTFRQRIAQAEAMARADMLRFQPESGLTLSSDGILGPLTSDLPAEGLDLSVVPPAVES

T3: chloroplast ribosomal protein uL23c (spinach (Spinacia oleracea) (endogenous …, UniProt Q9LWB5 77-198))
T3 sequence (looked up): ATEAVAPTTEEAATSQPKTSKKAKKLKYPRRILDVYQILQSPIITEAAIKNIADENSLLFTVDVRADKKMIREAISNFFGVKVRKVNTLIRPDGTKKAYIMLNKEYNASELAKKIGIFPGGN

T4: chloroplast ribosomal protein uS13c (spinach (Spinacia oleracea) (endogenous …, UniProt P82163 48-172))
T4 sequence (looked up): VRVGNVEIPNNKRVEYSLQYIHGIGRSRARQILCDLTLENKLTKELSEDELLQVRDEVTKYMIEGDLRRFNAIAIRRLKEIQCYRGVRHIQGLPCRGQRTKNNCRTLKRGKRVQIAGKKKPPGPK

T5: chloroplast ribosomal protein uL13c (spinach (Spinacia oleracea) (endogenous …, UniProt P12629 48-250))
T5 sequence (looked up): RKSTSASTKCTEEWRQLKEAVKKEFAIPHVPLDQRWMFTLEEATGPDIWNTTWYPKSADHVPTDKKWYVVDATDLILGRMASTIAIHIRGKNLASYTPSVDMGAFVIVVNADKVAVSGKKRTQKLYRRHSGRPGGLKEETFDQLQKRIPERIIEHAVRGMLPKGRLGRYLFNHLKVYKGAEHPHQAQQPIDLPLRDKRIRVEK

B1: chloroplast ribosomal protein uS3c (natural protein, UniProt P09595 1-218, looked up)
chain: MGQKINPLGFRLGTTQSHYSLWFSQPKNYAEGLQEDQKIRDCIKNYVQKNTKTSSGVEGIARIEIQKRIDLIQVIIHMGFPKLLIENRPQGVEDLKINVQKELNCVNRKLNIAITRIAKPYGDPNILAEFIAGQLKSRVSFRKAMKKAIELTEQADTKGIQIQIAGRIDGKEIARIEWIREGRVPLQTIRAKIDYCAYTVRTIYGVLGIKIWIFMGEE
B2: plastid-specific ribosomal protein cL38 (natural protein, UniProt P82411 48-116, looked up)
chain: SSRPQKKGTAHHMKTRPKKTARWDIKRGPAVYPPLPPLPAEWTIVSSAVDEADSSSSTTSSSAEIAQSA
B3: chloroplast ribosomal protein uS5c (natural protein, UniProt Q9ST69 56-308, looked up)
chain: CIKKDDIDITFFEQDNPDEEITFDPPEKPEGYIPPRAVDEPPFESEEEIALAYEELYGAAYSGESLLGNDVYAMDSKIKKATGFGSKSKKEKIRDGFEENVVQVRRVTKVVKGGKHMRFRAIVVVGDKKGQVGVGVGKAKEVVSAVQKAAVDARRNIITVPMTKYLTFPHRNEADYGAARVMLRPAAPGTGVIAGGAVRTVLEMAGVENALGKQLGSNNALNNARATIVAVQTMRQFSDVARDRGIPMEELWK
B4: chloroplast ribosomal protein uL29c (natural protein, UniProt P82248 59-168, looked up)
chain: VKKEDELKELRTKTNEQLNEEILQLKGELFMLRLQRSARENFKPSDFGRMRKRVARMLTVKREREIEQGVGKRLSRKLDKAWKRSIVVRPPPSLKKLQEKATAEAEAEKA
B5: chloroplast ribosomal protein uS2c (natural protein, UniProt P08242 1-236, looked up)
chain: MTRRYWNINLEEMMEAGVHFGHGTRKWNPRMSPYISAKCKGIHIINLTRTARFLSEACDLVFDASSRGKQFLIVGTKNKAADSVARAAIRARCHYVNKKWLGGMLTNWSTTETRLHKFRDLRMEQTAGRLARLPKRDAAVVKRQLSHLQTYLGGIKYMTGLPDIVIIVDQQEEYTALRECITLGIPTICLIDTNCNPDLADISIPANDDAIASIRLILTKLVFAICEGRSSYIRNP
B6: plastid-specific ribosomal protein bTHXc (natural protein, UniProt P47910 55-101, looked up)
chain: GRGDRKTAKGKRFNHSFGNARPKNKNKGRGPPKAPIFPKGDPSQKED
B7: chloroplast ribosomal protein bL21c (natural protein, UniProt P24613 56-256, looked up)
chain: AKRRRFQEIPEELKAEFEEFQRPPNQKPQLSDVLPDDFQAPEPGTPEYNDIINQFLPKKGPPPPREEIFAVVVIGSRQYIVIPGRWIYTQRLKGATVNDKIVLNKVLLVGTKASTYIGTPIVTNAAVHAVVEEQLLDDKVIVFKYKKKKNYRRNIGHRQPITRIKITGITGYEDYPASTLEAEVEAKEEAEAEAEAEAVPV
B8: chloroplast ribosomal protein uL22c (natural protein, UniProt P09594 1-199, looked up)
chain: MGFFKKKEKKAEFDVFRLYGLHHPEPGKCDEITTRGYSISMSVDKARRVIDQIRGRSYAETLMILELMPYRACYPIFKLIYSAAANASHNKQFNKANLIISKAEVNKGITLKKVKPRARGRSYMIKRPTCHITIVLRDITHFDSYDKFLESLTPKKLIALLGLMSTGRRRELLCGRFRENHKIKSFLYKIALFKRYEVM

What all share (assay): cryo-EM structure
The target of experiment [1] is B3.
For experiment [2], the target named is B7.
The target in experiment [3] is T1, chloroplast ribosomal protein bL20c.
The target in experiment [4] is T2, chloroplast ribosomal protein bS1c.
In experiment [5] the target is T3, chloroplast ribosomal protein uL23c.
Experiment [6] concerns the target T4, chloroplast ribosomal protein uS13c.
Experiment [7] has as its target T5, chloroplast ribosomal protein uL13c.

Consider B1, for which the binding result in experiment [1] is recorded as “binds”. Regarding B2, the binding result in experiment [2] and in experiment [3] was “binds” in each case.

With B3, the binding result in experiment [4] is “binds”. Take B4: the binding result in experiment [5] was “binds”. For the molecule B5, the binding result in experiment [4] and in experiment [1] was “binds” in each case. For B6, the binding result in experiment [6] is given as “binds”. Regarding B7, the binding result in experiment [7] is given as “binds”. Still for that read-out and setting: for B8 the value was “binds”.
